Laboratory results from PMC3365590 (Journal of Molecular Biology, 2010).

Target: the molecule itself
Experiment: SEC

B1: ROK fructokinase YdhR from Bacillus subtilis, native protein (size exclusion chromatography) (enzyme, B. subtilis, UniProt O05510 1-299, looked up)
chain: MLGGIEAGGTKFVCAVGREDGTIIDRIEFPTKMPDETIEKVIQYFSQFSLQAIGIGSFGPVDNDKTSQTYGTITATPKAGWRHYPFLQTVKNEMKIPVGFSTDVNAAALGEFLFGEAKGLDSCLYITIGTGIGAGAIVEGRLLQGLSHPEMGHIYIRRHPDDVYQGKCPYHGDCFEGLASGPAIEARWGKKAADLSDIAQVWELEGYYIAQALAQYILILAPKKIILGGGVMQQKQVFSYIYQYVPKIMNSYLDFSELSDDISDYIVPPRLGSNAGIIGTLVLAHQALQAEAASGEVRS
  stoichiometry N: 2
